Data taken from patent US20230304075, “NUCLEIC ACID-BASED BIOSENSOR AND ASSOCIATED METHODS” (FACible BioDiagnostics LLC, published 2023).

Legend:
[1] = biological target: SARS-CoV-2 spike S1 protein (SARS-CoV-2, UniProt P0DTC2 P0DTC2:14-685)
[2] = biological target: SARS-CoV-2 spike S2 protein (SARS-CoV-2, UniProt P0DTC2 P0DTC2:686-1213)

| Binder | binding result [1] | binding result [2] |
| --- | --- | --- |
| Rho91 (DAF1-4560c-17) (ssRNA) RNA: GGCGAUGCUAGGCUACGACUAGGCCUGAGAAUACUAGUCAAAGACGAUCGCUCGCUUCGGCGAUGAUGGAGAGGCGCAAGGUUAACCGCCUCAGCGUUCAAGCAAAAGAACCCUGUUUGGCUCACCGGGUCCUGCGCAU | no binding | binds |
| Rho94 (DAF2-30e-17) (ssRNA) RNA: GGUAGCCCUGCCCGGUGUACCUGAGCCUAGCUCAACGACUCGCUUCGGCGAUGAUGGAGAGGCGCAAGGUUAACCGCCUCAGUCGAAUGGGUACACCUGGCAGUCCGGACAUGCAU | no binding | binds |
